From US20250073311A1, “DOSAGE REGIME” (ZEALAND PHARMA A/S, priority 2021, published 2025)
Numbered stars: 1 amine (or outer) side, 2 acyl side, 3 side chain; on linkers, the order of the positions; unused ones are H or OH. Square brackets hold non-standard residues; d marks the D form. Side chains are listed from the residue outwards. * marks the point of attachment. C18 diacid = O=C(O)CCCCCCCCCCCCCCCCC(=O)*; γGlu = O=C(O)[C@H](CCC(=O)[*:2])N[*:1]; Aib = CC(C)(N)C(=O)O

T1: human GLP-2 receptor (hGLP2-R) (human, UniProt O95838)
T1 sequence: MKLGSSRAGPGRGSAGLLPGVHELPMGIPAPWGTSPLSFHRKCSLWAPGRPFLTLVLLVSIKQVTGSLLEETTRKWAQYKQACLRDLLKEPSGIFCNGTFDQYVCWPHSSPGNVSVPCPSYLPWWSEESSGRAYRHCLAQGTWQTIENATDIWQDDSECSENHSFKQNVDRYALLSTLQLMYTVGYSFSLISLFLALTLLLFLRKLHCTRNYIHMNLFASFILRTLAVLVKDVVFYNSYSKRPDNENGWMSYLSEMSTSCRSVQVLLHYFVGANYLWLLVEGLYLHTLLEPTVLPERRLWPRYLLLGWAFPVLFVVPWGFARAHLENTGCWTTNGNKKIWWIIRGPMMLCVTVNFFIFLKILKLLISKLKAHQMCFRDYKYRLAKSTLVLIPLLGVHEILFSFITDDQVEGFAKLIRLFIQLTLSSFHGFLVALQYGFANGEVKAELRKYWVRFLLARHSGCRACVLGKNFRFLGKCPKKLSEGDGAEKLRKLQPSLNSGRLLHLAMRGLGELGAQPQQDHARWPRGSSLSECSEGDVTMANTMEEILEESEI

B1: Compound 29 (peptide)
peptide: H-H[Aib]EGSFTSELATILDK([γGlu-C18 diacid])QAARDFIAWLIKHKITD-OH
SMILES: CC[C@H](C)[C@H](NC(=O)[C@H](Cc1ccccc1)NC(=O)[C@H](CC(=O)O)NC(=O)[C@H](CCCNC(=N)N)NC(=O)[C@H](C)NC(=O)[C@H](C)NC(=O)[C@H](CCC(N)=O)NC(=O)[C@H](CCCCNC(=O)CC[C@H](NC(=O)CCCCCCCCCCCCCCCCC(=O)O)C(=O)O)NC(=O)[C@H](CC(=O)O)NC(=O)[C@H](CC(C)C)NC(=O)[C@@H](NC(=O)[C@@H](NC(=O)[C@H](C)NC(=O)[C@H](CC(C)C)NC(=O)[C@H](CCC(=O)O)NC(=O)[C@H](CO)NC(=O)[C@@H](NC(=O)[C@H](Cc1ccccc1)NC(=O)[C@H](CO)NC(=O)CNC(=O)[C@H](CCC(=O)O)NC(=O)C(C)(C)NC(=O)[C@@H](N)Cc1c[nH]cn1)[C@@H](C)O)[C@@H](C)O)[C@@H](C)CC)C(=O)N[C@@H](C)C(=O)N[C@@H](Cc1c[nH]c2ccccc12)C(=O)N[C@@H](CC(C)C)C(=O)N[C@H](C(=O)N[C@@H](CCCCN)C(=O)N[C@@H](Cc1c[nH]cn1)C(=O)N[C@@H](CCCCN)C(=O)N[C@H](C(=O)N[C@H](C(=O)N[C@@H](CC(=O)O)C(=O)O)[C@@H](C)O)[C@@H](C)CC)[C@@H](C)CC
B2: Compound 26 (peptide)
peptide: H-H[Aib]EGSFTSELATILDK([γGlu-C18 diacid])QAARDFIAWLIHHKITD-OH
SMILES: CC[C@H](C)[C@H](NC(=O)[C@H](Cc1ccccc1)NC(=O)[C@H](CC(=O)O)NC(=O)[C@H](CCCNC(=N)N)NC(=O)[C@H](C)NC(=O)[C@H](C)NC(=O)[C@H](CCC(N)=O)NC(=O)[C@H](CCCCNC(=O)CC[C@H](NC(=O)CCCCCCCCCCCCCCCCC(=O)O)C(=O)O)NC(=O)[C@H](CC(=O)O)NC(=O)[C@H](CC(C)C)NC(=O)[C@@H](NC(=O)[C@@H](NC(=O)[C@H](C)NC(=O)[C@H](CC(C)C)NC(=O)[C@H](CCC(=O)O)NC(=O)[C@H](CO)NC(=O)[C@@H](NC(=O)[C@H](Cc1ccccc1)NC(=O)[C@H](CO)NC(=O)CNC(=O)[C@H](CCC(=O)O)NC(=O)C(C)(C)NC(=O)[C@@H](N)Cc1c[nH]cn1)[C@@H](C)O)[C@@H](C)O)[C@@H](C)CC)C(=O)N[C@@H](C)C(=O)N[C@@H](Cc1c[nH]c2ccccc12)C(=O)N[C@@H](CC(C)C)C(=O)N[C@H](C(=O)N[C@@H](Cc1c[nH]cn1)C(=O)N[C@@H](Cc1c[nH]cn1)C(=O)N[C@@H](CCCCN)C(=O)N[C@H](C(=O)N[C@H](C(=O)N[C@@H](CC(=O)O)C(=O)O)[C@@H](C)O)[C@@H](C)CC)[C@@H](C)CC
B3: Compound 27 (peptide)
peptide: H-H[Aib]EGSFTSELATILDK([γGlu-C18 diacid])QAARDFIAWLIYHKITD-OH
SMILES: CC[C@H](C)[C@H](NC(=O)[C@H](Cc1ccccc1)NC(=O)[C@H](CC(=O)O)NC(=O)[C@H](CCCNC(=N)N)NC(=O)[C@H](C)NC(=O)[C@H](C)NC(=O)[C@H](CCC(N)=O)NC(=O)[C@H](CCCCNC(=O)CC[C@H](NC(=O)CCCCCCCCCCCCCCCCC(=O)O)C(=O)O)NC(=O)[C@H](CC(=O)O)NC(=O)[C@H](CC(C)C)NC(=O)[C@@H](NC(=O)[C@@H](NC(=O)[C@H](C)NC(=O)[C@H](CC(C)C)NC(=O)[C@H](CCC(=O)O)NC(=O)[C@H](CO)NC(=O)[C@@H](NC(=O)[C@H](Cc1ccccc1)NC(=O)[C@H](CO)NC(=O)CNC(=O)[C@H](CCC(=O)O)NC(=O)C(C)(C)NC(=O)[C@@H](N)Cc1c[nH]cn1)[C@@H](C)O)[C@@H](C)O)[C@@H](C)CC)C(=O)N[C@@H](C)C(=O)N[C@@H](Cc1c[nH]c2ccccc12)C(=O)N[C@@H](CC(C)C)C(=O)N[C@H](C(=O)N[C@@H](Cc1ccc(O)cc1)C(=O)N[C@@H](Cc1c[nH]cn1)C(=O)N[C@@H](CCCCN)C(=O)N[C@H](C(=O)N[C@H](C(=O)N[C@@H](CC(=O)O)C(=O)O)[C@@H](C)O)[C@@H](C)CC)[C@@H](C)CC
B4: Compound 28 (peptide)
peptide: H-H[Aib]EGSFTSELATILDK([γGlu-C18 diacid])QAARDFIAWLILHKITD-OH
SMILES: CC[C@H](C)[C@H](NC(=O)[C@H](Cc1ccccc1)NC(=O)[C@H](CC(=O)O)NC(=O)[C@H](CCCNC(=N)N)NC(=O)[C@H](C)NC(=O)[C@H](C)NC(=O)[C@H](CCC(N)=O)NC(=O)[C@H](CCCCNC(=O)CC[C@H](NC(=O)CCCCCCCCCCCCCCCCC(=O)O)C(=O)O)NC(=O)[C@H](CC(=O)O)NC(=O)[C@H](CC(C)C)NC(=O)[C@@H](NC(=O)[C@@H](NC(=O)[C@H](C)NC(=O)[C@H](CC(C)C)NC(=O)[C@H](CCC(=O)O)NC(=O)[C@H](CO)NC(=O)[C@@H](NC(=O)[C@H](Cc1ccccc1)NC(=O)[C@H](CO)NC(=O)CNC(=O)[C@H](CCC(=O)O)NC(=O)C(C)(C)NC(=O)[C@@H](N)Cc1c[nH]cn1)[C@@H](C)O)[C@@H](C)O)[C@@H](C)CC)C(=O)N[C@@H](C)C(=O)N[C@@H](Cc1c[nH]c2ccccc12)C(=O)N[C@@H](CC(C)C)C(=O)N[C@H](C(=O)N[C@@H](CC(C)C)C(=O)N[C@@H](Cc1c[nH]cn1)C(=O)N[C@@H](CCCCN)C(=O)N[C@H](C(=O)N[C@H](C(=O)N[C@@H](CC(=O)O)C(=O)O)[C@@H](C)O)[C@@H](C)CC)[C@@H](C)CC
B5: Compound 25 (peptide)
peptide: H-H[Aib]EGTFTSELATILDK([γGlu-C18 diacid])QAARDFIAWLIEHKITD-OH
SMILES: CC[C@H](C)[C@H](NC(=O)[C@H](Cc1ccccc1)NC(=O)[C@H](CC(=O)O)NC(=O)[C@H](CCCNC(=N)N)NC(=O)[C@H](C)NC(=O)[C@H](C)NC(=O)[C@H](CCC(N)=O)NC(=O)[C@H](CCCCNC(=O)CC[C@H](NC(=O)CCCCCCCCCCCCCCCCC(=O)O)C(=O)O)NC(=O)[C@H](CC(=O)O)NC(=O)[C@H](CC(C)C)NC(=O)[C@@H](NC(=O)[C@@H](NC(=O)[C@H](C)NC(=O)[C@H](CC(C)C)NC(=O)[C@H](CCC(=O)O)NC(=O)[C@H](CO)NC(=O)[C@@H](NC(=O)[C@H](Cc1ccccc1)NC(=O)[C@@H](NC(=O)CNC(=O)[C@H](CCC(=O)O)NC(=O)C(C)(C)NC(=O)[C@@H](N)Cc1c[nH]cn1)[C@@H](C)O)[C@@H](C)O)[C@@H](C)O)[C@@H](C)CC)C(=O)N[C@@H](C)C(=O)N[C@@H](Cc1c[nH]c2ccccc12)C(=O)N[C@@H](CC(C)C)C(=O)N[C@H](C(=O)N[C@@H](CCC(=O)O)C(=O)N[C@@H](Cc1c[nH]cn1)C(=O)N[C@@H](CCCCN)C(=O)N[C@H](C(=O)N[C@H](C(=O)N[C@@H](CC(=O)O)C(=O)O)[C@@H](C)O)[C@@H](C)CC)[C@@H](C)CC

What follows are binders tested against human glucagon-like peptide 1 receptor (GLP-1R) (human, UniProt P43220) (assay: cell-based or functional assay).

Row | Binder | EC50 GLP-1 (nM), cAMP AlphaScreen [nM]
1 | B1 | 0.31
2 | B2 | 0.29
3 | B3 | 0.45
4 | B4 | 0.36
5 | B5 | 0.094

What follows are binders tested against T1, human GLP-2 receptor (hGLP2-R) (assay: cell-based or functional assay).

Row | Binder | EC50 GLP-2 (nM), cAMP AlphaScreen [nM]
6 | B1 | 0.29
7 | B2 | 0.59
8 | B3 | 1.1
9 | B4 | 0.51
10 | B5 | 0.33
